Measured values reported in patent US20220315554A1 (3B PHARMACEUTICALS GMBH, published 2022).
Numbered stars: 1 amine (or outer) side, 2 acyl side, 3 side chain; on linkers, the order of the positions; unused ones are H or OH. Bridge positions count the residues as written; N and C are the ends. Ends that are not written are not given here. * marks the point of attachment. Ttds = 1,13-diamino-4,7,10-trioxatridecan-succinamic acid, NCCCOCCOCCOCCCNC(=O)CCC(=O)*; tMeBn(DOTA-AET) = Cys-Cys bridge (thioethers) carrying DOTA-AET; tMeBn(DOTA-PP) = Cys-Cys bridge (thioethers) carrying DOTA-PP; DOTA = O=C(O)CN1CCN(CC(=O)O)CCN(CC(=O)*)CCN(CC(=O)O)CC1; mXylylene = c1cc(C[*:1])cc(C[*:2])c1; 2Lut = Cys-Cys bridge (thioethers); 3Lut = Cys-Cys bridge (thioethers); Pentanesulfonyl = CCCCCS(=O)(=O)*; Hexanoyl = CCCCCC(=O)*

B1: Ac-[Cys(3MeBn)-Pro-Pro-Thr-Glu-Phe-Cys]-Asp-His-Phe-Arg-Asp-NH2 (peptide)
peptide: Ac-CPPTEFCDHFRD-NH2
modifications: linker 1-7 via mXylylene
SMILES: CC(=O)N[C@H]1CSCc2cccc(c2)CSC[C@@H](C(=O)N[C@@H](CC(=O)O)C(=O)N[C@@H](Cc2c[nH]cn2)C(=O)N[C@@H](Cc2ccccc2)C(=O)N[C@@H](CCCNC(=N)N)C(=O)N[C@@H](CC(=O)O)C(N)=O)NC(=O)[C@H](Cc2ccccc2)NC(=O)[C@H](CCC(=O)O)NC(=O)[C@H]([C@@H](C)O)NC(=O)[C@@H]2CCCN2C(=O)[C@@H]2CCCN2C1=O
B2: Hex-[Cys(tMeBn(DOTA-AET))-Pro-Pro-Thr-Gln-Phe-Cys]-asp-NH2 (peptide)
peptide: CPPTQFCD
modifications: N-terminal Hex (hexanoyl); Cys1-Cys7 bridged by tMeBn(DOTA-AET) (thioethers); D-Asp8 (asp); C-terminal amide
B3: Hex-[Cys(tMeBn(EuDOTA-PP))-Pro-Pro-Thr-Gln-Phe-Cys]-Asp-NH2 (peptide)
peptide: Hexanoyl-CPPTQFCD-NH2
modifications: linker 1-7 via tMeBn(EuDOTA-PP); also: Eu-DOTA complex
B4: Hex-[Cys(tMeBn(DOTA-PP))-Pro-Pro-Thr-Gln-Phe-Cys]-Asp-NH2 (peptide)
peptide: Hexanoyl-CPPTQFCD-NH2
modifications: linker 1-7 via tMeBn(DOTA-PP)
B5: Hex-[Cys(2Lut)-Pro-Pro-Thr-Gln-Phe-Cys]-Asp-NH2 (peptide)
peptide: Hexanoyl-CPPTQFCD-NH2
modifications: linker 1-7 via 2Lut
B6: Hex-[Cys(tMeBn(DOTA-AET))-Pro-Pro-Thr-Gln-Phe-Cys]-Ser-OH (peptide)
peptide: Hexanoyl-CPPTQFCS-OH
modifications: linker 1-7 via tMeBn(DOTA-AET)
B7: Hex-[Cys(tMeBn(InDOTA-PP))-Pro-Pro-Thr-Gln-Phe-Cys]-Asp-NH2 (peptide)
peptide: Hexanoyl-CPPTQFCD-NH2
modifications: linker 1-7 via tMeBn(InDOTA-PP); also: In-DOTA complex
B8: Hex-[Cys(tMeBn(DOTA-AET))-Pro-Pro-Thr-Gln-Phe-Cys]-Asp-NH2 (peptide)
peptide: Hexanoyl-CPPTQFCD-NH2
modifications: linker 1-7 via tMeBn(DOTA-AET)
B9: Hex-[Cys(3MeBn)-Pro-Pro-Thr-Gln-Phe-Cys]-Asp-Ape-NH-DOTA' (peptide)
peptide: Hexanoyl-CPPTQFCD
modifications: linker 1-7 via mXylylene; not fully specified (C-terminus); printed as Hex-[Cys(3MeBn)-Pro-Pro-Thr-Gln-Phe-Cys]-Asp-Ape(DOTA)
B10: DOTA-Ttds-Leu-[Cys(3MeBn)-Pro-Pro-Thr-Glu-Phe-Cys]-Asp-His-Phe-Arg-Asp-NH2 (peptide)
peptide: {DOTA-Ttds}-LCPPTEFCDHFRD-NH2
modifications: linker 2-8 via mXylylene
B11: Hex-[Cys(tMeBn(DOTA-AET))-Pro-Pro-Thr-Glu-Phe-Cys]-NH2 (peptide)
peptide: Hexanoyl-CPPTEFC-NH2
modifications: linker 1-7 via tMeBn(DOTA-AET)
B12: Pentyl-SO2-[Cys(tMeBn(DOTA-AET))-Pro-Pro-Thr-Glu-Phe-Cys]-OH (peptide)
peptide: Pentanesulfonyl-CPPTEFC-OH
modifications: linker 1-7 via tMeBn(DOTA-AET)
B13: Hex-[Cys(3MeBn)-Pro-Pro-Thr-Gln-Phe-Cys]-Asp-Ttds-Ape-NH-DOTA' (peptide)
peptide: Hexanoyl-CPPTQFCD
modifications: linker 1-7 via mXylylene; not fully specified (C-terminus); printed as Hex-[Cys(3MeBn)-Pro-Pro-Thr-Gln-Phe-Cys]-Asp-Ttds-Ape(DOTA)
B14: Pentyl-SO2-[Cys(tMeBn(DOTA-PP))-Pro-Pro-Thr-Gln-Phe-Cys]-Asp-NH2 (peptide)
peptide: Pentanesulfonyl-CPPTQFCD-NH2
modifications: linker 1-7 via tMeBn(DOTA-PP)
B15: Hex-[Cys(3Lut)-Pro-Pro-Thr-Gln-Phe-Cys]-Asp-NH2 (peptide)
peptide: Hexanoyl-CPPTQFCD-NH2
modifications: linker 1-7 via 3Lut
B16: Hex-[Cys(tMeBn(LuDOTA-PP))-Pro-Pro-Thr-Gln-Phe-Cys]-Asp-NH2 (peptide)
peptide: Hexanoyl-CPPTQFCD-NH2
modifications: linker 1-7 via tMeBn(LuDOTA-PP); also: Lu-DOTA complex
B17: Hex-[Cys(3MeBn)-Pro-Pro-Thr-Glu-Phe-Cys]-Asp-His-Phe-Arg-Asp-NH2 (peptide)
peptide: Hexanoyl-CPPTEFCDHFRD-NH2
modifications: linker 1-7 via mXylylene
SMILES: CCCCCC(=O)N[C@H]1CSCc2cccc(c2)CSC[C@@H](C(=O)N[C@@H](CC(=O)O)C(=O)N[C@@H](Cc2c[nH]cn2)C(=O)N[C@@H](Cc2ccccc2)C(=O)N[C@@H](CCCNC(=N)N)C(=O)N[C@@H](CC(=O)O)C(N)=O)NC(=O)[C@H](Cc2ccccc2)NC(=O)[C@H](CCC(=O)O)NC(=O)[C@H]([C@@H](C)O)NC(=O)[C@@H]2CCCN2C(=O)[C@@H]2CCCN2C1=O
B18: Hex-[Cys(3MeBn)-Pro-Pro-Thr-Gln-Phe-Cys]-Asp-NH2 (peptide)
peptide: Hexanoyl-CPPTQFCD-NH2
modifications: linker 1-7 via mXylylene
SMILES: CCCCCC(=O)N[C@H]1CSCc2cccc(c2)CSC[C@@H](C(=O)N[C@@H](CC(=O)O)C(N)=O)NC(=O)[C@H](Cc2ccccc2)NC(=O)[C@H](CCC(N)=O)NC(=O)[C@H]([C@@H](C)O)NC(=O)[C@@H]2CCCN2C(=O)[C@@H]2CCCN2C1=O
B19: Hex-[Cys(tMeBn(DOTA-AET))-Pro-Pro-Thr-Gln-Phe-Cys]-Asp-OH (peptide)
peptide: Hexanoyl-CPPTQFCD-OH
modifications: linker 1-7 via tMeBn(DOTA-AET)
B20: Hex-[Cys(tMeBn(GaDOTA-PP))-Pro-Pro-Thr-Gln-Phe-Cys]-Asp-NH2 (peptide)
peptide: Hexanoyl-CPPTQFCD-NH2
modifications: linker 1-7 via tMeBn(GaDOTA-PP)
B21: Pentyl-SO2-[Cys(3MeBn)-Pro-Pro-Thr-Gln-Phe-Cys]-Asp-NH2 (peptide)
peptide: Pentanesulfonyl-CPPTQFCD-NH2
modifications: linker 1-7 via mXylylene
SMILES: CCCCCS(=O)(=O)N[C@H]1CSCc2cccc(c2)CSC[C@@H](C(=O)N[C@@H](CC(=O)O)C(N)=O)NC(=O)[C@H](Cc2ccccc2)NC(=O)[C@H](CCC(N)=O)NC(=O)[C@H]([C@@H](C)O)NC(=O)[C@@H]2CCCN2C(=O)[C@@H]2CCCN2C1=O
B22: Hex-[Cys(3MeBn)-Pro-Pro-Ala-Glu-Phe-Cys]-NH2 (peptide)
peptide: Hexanoyl-CPPAEFC-NH2
modifications: linker 1-7 via mXylylene
SMILES: CCCCCC(=O)N[C@H]1CSCc2cccc(c2)CSC[C@@H](C(N)=O)NC(=O)[C@H](Cc2ccccc2)NC(=O)[C@H](CCC(=O)O)NC(=O)[C@H](C)NC(=O)[C@@H]2CCCN2C(=O)[C@@H]2CCCN2C1=O
B23: Hex-[Cys(3MeBn)-Pro-Pro-Thr-Ala-Phe-Cys]-NH2 (peptide)
peptide: Hexanoyl-CPPTAFC-NH2
modifications: linker 1-7 via mXylylene
SMILES: CCCCCC(=O)N[C@H]1CSCc2cccc(c2)CSC[C@@H](C(N)=O)NC(=O)[C@H](Cc2ccccc2)NC(=O)[C@H](C)NC(=O)[C@H]([C@@H](C)O)NC(=O)[C@@H]2CCCN2C(=O)[C@@H]2CCCN2C1=O

These binders were tested against T1, human fibroblast activation protein (FAP) on FAP-expressing human WI-38 fibroblasts (human) (assay: competition FACS, WI-38 cells, vs Cy5-labeled compound; A: pIC50 >8.0).
T1 sequence (chain, as listed by the source): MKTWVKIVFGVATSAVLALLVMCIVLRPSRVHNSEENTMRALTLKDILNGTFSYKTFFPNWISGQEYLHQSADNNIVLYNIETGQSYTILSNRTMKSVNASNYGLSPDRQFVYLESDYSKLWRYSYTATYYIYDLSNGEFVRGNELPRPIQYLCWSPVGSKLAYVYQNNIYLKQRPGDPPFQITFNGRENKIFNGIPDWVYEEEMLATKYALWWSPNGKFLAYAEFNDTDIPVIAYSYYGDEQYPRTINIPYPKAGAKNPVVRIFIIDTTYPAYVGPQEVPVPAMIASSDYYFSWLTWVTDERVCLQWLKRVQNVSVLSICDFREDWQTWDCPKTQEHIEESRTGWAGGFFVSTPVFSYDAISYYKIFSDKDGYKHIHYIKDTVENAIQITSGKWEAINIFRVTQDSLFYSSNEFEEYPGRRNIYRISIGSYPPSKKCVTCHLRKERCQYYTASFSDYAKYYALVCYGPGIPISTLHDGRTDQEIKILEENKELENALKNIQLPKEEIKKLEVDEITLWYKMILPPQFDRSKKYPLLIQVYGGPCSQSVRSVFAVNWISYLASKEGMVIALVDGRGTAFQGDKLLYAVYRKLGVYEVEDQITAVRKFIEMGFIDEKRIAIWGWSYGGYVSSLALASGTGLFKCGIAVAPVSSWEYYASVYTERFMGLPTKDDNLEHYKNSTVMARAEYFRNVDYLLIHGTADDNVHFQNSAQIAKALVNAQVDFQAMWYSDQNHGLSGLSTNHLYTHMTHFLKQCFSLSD

pIC50 Category (FACS)	Binder
> 8 pIC50	B1
> 8 pIC50	B2
> 8 pIC50	B3
> 8 pIC50	B4
> 8 pIC50	B5
> 8 pIC50	B6
> 8 pIC50	B7
> 8 pIC50	B8
> 8 pIC50	B9
> 8 pIC50	B10
> 8 pIC50	B11
> 8 pIC50	B12
> 8 pIC50	B13
> 8 pIC50	B14
> 8 pIC50	B15
> 8 pIC50	B16
> 8 pIC50	B17
> 8 pIC50	B18
> 8 pIC50	B19
> 8 pIC50	B20
> 8 pIC50	B21

What follows are binders tested against T1, human fibroblast activation protein … (assay: competition FACS, WI-38 cells, vs Cy5-labeled compound; D: pIC50 ≤6.0).

pIC50 Category (FACS)	Binder
≤ 6 pIC50	B22
≤ 6 pIC50	B23
